Experiments:
[1] = target: T1, MRJP1 oligomer (MRJP1_4-apisimin4-24-methylenecholesterol8 complex) (Apis mellifera, UniProt O18330+Q8ISL8); assay: X-ray crystal structure at […] Å; co-purified ligand identified by GC-MS and NMR; format: binding; conditions: co-purified natural ligand; eight per complex (four per asymmetric unit); inner two contact MRJP1 and apisimin, outer two apisimin only; crystals at pH 8.5
T1 construct: native complex purified from royal jelly; mature chains without signal peptides; partly deglycosylated with PNGase F (NAG left at Asn144); modelled MRJP1 23-432 and 28-432, apisimin 37-77 and 36-78; 254 kDa by AUC
T1 sequence (O18330 20-432): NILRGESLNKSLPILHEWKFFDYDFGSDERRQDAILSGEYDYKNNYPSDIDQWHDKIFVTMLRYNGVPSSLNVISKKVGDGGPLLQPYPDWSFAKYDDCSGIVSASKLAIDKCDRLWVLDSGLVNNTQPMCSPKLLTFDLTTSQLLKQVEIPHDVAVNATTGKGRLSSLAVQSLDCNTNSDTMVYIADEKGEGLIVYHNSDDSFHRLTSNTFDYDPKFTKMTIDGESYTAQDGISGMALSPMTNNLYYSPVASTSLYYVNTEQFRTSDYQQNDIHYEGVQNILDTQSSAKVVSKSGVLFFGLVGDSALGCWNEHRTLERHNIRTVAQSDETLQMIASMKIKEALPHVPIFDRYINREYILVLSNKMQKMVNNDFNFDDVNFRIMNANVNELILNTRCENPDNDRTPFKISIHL
T1 sequence (Q8ISL8 25-78): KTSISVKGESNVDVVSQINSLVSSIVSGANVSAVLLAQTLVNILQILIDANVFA

[2] = target: T2, Major royal jelly protein 1 (Apis mellifera, UniProt O18330 20-432, N-acetylglucosamine linked to Asn144 (seen in the crystal after partial deglycosylation); native glycoprotein); assay: SEC + other: SAXS; purified native MRJP1 oligomer at near-neutral pH; SAXS in 20 mM sodium phosphate pH 8, 150 mM NaCl, 0.1-10 mg/mL
T2 construct: Major royal jelly protein 1 (MRJP1) of the honeybee Apis mellifera; mature protein without N-terminal signal peptide; modelled residues 23-432 (protomer A) and 28-432 (protomer B); Native protein; occurs in royal jelly as a monomer fraction and as an oligomer with apisimin and 24-methylenecholesterol; also called MRJP1; royalactin (the monomer); source: purified from royal jelly (ultrafiltration, …)
T2 sequence (looked up): T1 sequence (O18330 20-432)

[3] = target: T2, Major royal jelly protein 1; assay: SEC; gel filtration of royal jelly collected from the nectar of different plants and from different honeybee species (Supplementary Fig. 10A, B)
[4] = target: T2, Major royal jelly protein 1; assay: crystal structure; native MRJP1 oligomer from royal jelly, deglycosylated with PNGase F; hanging drop, 0.1 M Tris pH 8.5, 2.0 M ammonium phosphate; 2.65 Å, space group H32
[5] = target: Major royal jelly protein 1 of Apis cerana (Apis cerana); assay: SEC; gel filtration of royal jelly collected from the nectar of different plants and from different honeybee species (Supplementary Fig. 10A, B)
[6] = target: the molecule itself; assay: crystal structure; native MRJP1 oligomer from royal jelly, deglycosylated with PNGase F; hanging drop, 0.1 M Tris pH 8.5, 2.0 M ammonium phosphate; 2.65 Å, space group H32

## C=C(CC[C@@H](C)[C@H]1CC[C@H]2[C@@H]3CC=C4C[C@@H](O)CC[C@]4(C)[C@H]3CC[C@]12C)C(C)C [Osl, 24-methylenecholesterol]
[1]
  X-ray crystal structure at 2.65 Å; co-purified ligand identified by GC-MS and NM: The asymmetric unit contains two MRJP1, two apisimin, four unexpected 24-methylenecholesterol (ostreasterol, Osl)

## Major royal jelly protein 1 (from UniProt O18330 20-432) (natural protein)
[2]
  stoichiometry N: 4
[3]
  stoichiometry N: 4
[4]
  stoichiometry N: 4

## Major royal jelly protein 1 of Apis cerana (natural protein)
[5]
  stoichiometry N: 4

B1: apisimin (peptide, UniProt Q8ISL8 25-78, looked up)
chain: T1 sequence (Q8ISL8 25-78)
notes: Apisimin, serine-valine-rich peptide of the honeybee; mature protein without N-terminal signal peptide; modelled residues 37-77 (protomer C) and 36-78 (protomer D); source: co-purified with the native MRJP1 oligomer from royal jelly
[4]; both partners purified
  binding result: binds
[6]
  binding result: binds

Source: publication PMC6105727, “Architecture of the native major royal jelly protein 1 oligomer” (Nature Communications, 2018)
